The record followed here is article PMC5395579, “Fis Regulates Type III Secretion System by Influencing the Transcription of exsA in Pseudomonas aeruginosa Strain PA14”.

This series concerns the target Fis (UniProt A0A0H2ZIA5 1-107). The experiment in a line: EMSA. Conditions: protein: recombinant; chain copies: 2; label: none (ethidium bromide stain). (A gel shift assay detects complexes by their altered migration in electrophoresis.)

B1: exsA promoter -10 box probe (original Fis site, exsB-exsA intergenic) (dsDNA)
DNA 1: TAATCCTGATTATTATAAAATCGACTCCGTG
DNA 2: CACGGAGTCGATTTTATAATAATCAGGATTA
Consider B1, for which the binding result was “binds”.
